Experimental data taken from patent publication US12514920B1, “Respiratory syncytial virus mRNA vaccine, and preparation method therefor and use thereof” (Hangzhou Tianlong Pharmaceutical Co., Ltd., priority 2024, dated 2026).
Changes are numbered by the printed parent chain.

B1: YK-RSV-009 (protein)
chain: QNITEEFYCSTCSAVSKGYLGALRTGWYTSVILIELSNIKENKCNGTDAKVKLIKQELDKYKNAVTDLQLLMQSTPATGSGSAIASGVAVSKVLHLEGEVNKIKSALLSTNKAVVSLSNGVSVLTFKVLDLKNYIDKQLLPIVNKQSCSIPNIETVIEFQQKNNRLLEITREFSVNAGVTTPVSTYMLTNSELLSLINDMPITNDQKKLMSNNVQIVRQQSYSIMSIIKEEVLAYVVQLPLYGVIDTPCWKLHTSPLCTTNTKEGSNICLTRTDRGWYCDNAGSVSFFPQAETCKVQSNRVFCDTMNSRTLPSEVNLCNVDIFNPKYDCKIMTSKTDVSSSVITSLGAIVSCYGKTKCTASNKNRGIIKTFSNGCDYVSNKGVDTVSVGNTLYYVNKQEGQSLYVKCEPIINFYDPLVFPSSEFDASISQVNEKINQSLAFIRKSDELLHNVNAGKSTTNIMITTIIIVIIVILLSLIAVGLLLY
B2: YK-RSV-048 (protein)
chain: QNITEEFYQSTCSAVSKGYLGALRTGWYTSVITIELSNIKENKCNGTDAKVKLIKQELDKYKNAVTDLQLLMQSTPATGSGSFLGFLCGVGSAIASGVAVSKVLHLEGEVNKIKSALLSTNKAVVSLSNGVSVLTFKVLDLKNYIDKQLLPILNKQSCSIPNIETVIEFQQKNNRLLEITREFSVNAGVTTPVSTYMLTNSELLSLINDMPITNDQKKLMSNNVQIVRQQSYSIMSIIKEEVLAYVVQLPLYGVIDTPCWKLHTSPLCTTNTKEGSNICLTRTDRGWYCDNAGSVSFFPQAETCKVQSNRVFCDTMCSRTLPSEVNLCNVDIFNPKYDCKIMTSKTDVSSSVITSLGAIVSCYGKTKCTASNKNRGIIKTFSNGCDYVSNKGVDTVSVGNTLYYVNKQEGQSLYVKGEPIINFYDPLVFPSDEFDASISQVNEKINQSLAFIRKSDELLHNVNAGKSTTNIMITTIIIVIIVILLSLIAVGLLLY
B3: YK-RSV-050 (protein)
chain: B2 chain with L87C, C88L

Experiments:
RSV F antibody (11A9) = experiment: Binding of epitope II of RSV F antigen mutants by flow cytometry; details: epitope II, antibody 11A9
Outline: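 293T cells were transfected with mRNA-LNP (300 ng mRNA) encoding the RSV F mutants and harvested after 16 h. Cells were stained with fluorescent 3C12 (pre-F-specific epitope Φ) or 11A9 (epitope II, pre-F and post-F) for 2 h at 4 °C in the dark, then washed and read by flow cytometry on 1×10^4 cells per measurement.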

[1] = target: RSV pre-F antibody (7H11); experiment: Affinity of RSV F antigen mutants by BLI, epitope Quaternary; format: binding
Excerpt: The antibodies were each diluted to 10 g/mL with a 1×PBST solution.

[2] = target: RSV pre-F antibody (3C12); experiment: Affinity of RSV F antigen mutants by BLI, epitope Φ; format: binding
Experimental: To investigate the affinity of the RSV F antigen mutants for antibodies specifically recognizing epitopes in a pre-fusion conformation, the affinity was determined by a bio-layer interferometry (BLI) method in this example.
• 293T cells (purchased from ATCC cell bank); • RSV pre-F antibody (3C12), epitope Φ (Novoprotein, Cat. No.: DA101); • RSV pre-F antibody (7H11), epitope Quaternary (Novoprotein, Cat. No.: DA109); • Experimental group: mRNA vaccines after screening in Example 6;
Protein sample preparation: the experimental procedure was the same as in Example 3.
The antibodies were each diluted to 10 µg/mL with a 1×PBST solution. […]
The detection was performed using a protein interaction analyzer, and the results were analyzed using Data Analysis 12.0 software to obtain the binding rate, dissociation rate, and affinity constants.
Bio-Layer interferometry (referred to as BLI) is a label-free real-time monitoring optical detection technique, mainly used for comprehensive quantitative analysis of the interaction between biomolecules and protein concentration determination. […]
In the present application, the affinity of target proteins for 2 antibodies was analyzed by a BLI method, wherein the RSV pre-F antibody (3C12) recognizes the epitope […], and the RSV pre-F antibody (7H11) recognizes the epitope Quaternary.

| Molecule | RSV F antibody (11A9) Epitope II (%) binding rate (RSV F antibody (11A9)) [%] | Kd [1] [nM] | Kd [2] [nM] |
| --- | --- | --- | --- |
| B1 | 93.1 |  |  |
| B2 | 95.1 | 0.227 | 0.183 |
| B3 | 93.0 | 0.115 | 0.552 |
